Experiment: label from the status in PepcDB records
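Also: failed if final PepcDB status was selected cloned or expressed and not failed if soluble or beyond.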

| Sequence | protein production |
| --- | --- |
| MNELPIILLSPLIGGALAWLIRVKGIREAIGVVSSAIPLYFLIKLYPALEGEPIRYSLNVGGFELTLALSHISWIFAMIAAVVGLSAVLGLVSTAKDSNEWLFALMSLAGALGVFLANDFVVFFLSWEIMTFASFMMVFKYNRHASLKYFVLSIAGAYAMLLAIGIIYAKTGSLSFPEISAIFRQDAMMGMMGGGGVFTKTETLLIYALFLVAFGVKAGMFPLHVWAPDAYSETNQSYTAMFSGVLSKTGVYGFFLLYLLMYGKLAITLGNVRSAPTFGYIIAFLGGLTIMVGGILAALQEDIRKLFAYSSISQIGYILIGLGIGTPLGIAAATYHAISHALFKGLFFLIVATIIYRTGKTEFKDYGGLAEKMPITFAMAFVAILSLAGIPPMAGFASKWLIFEAVISRNLPILGAMVFFGSAIGFVYLIRFTYAVWFGQRPSDLEDVKDAPLPLAIGMGILAILNVIFGVAPGLVARELNKLFSNPPIGGTIWELDLGFGRYNGLLLSIWLVIGLIIAAILYFMGAGVRKVPVTDTYQSGNPVTMEYNLTIRRNFFLPLKEAMAFWLKMSFDRLYHDIWKAIEELADLARSYVYNGNIQAYAWYLAIILLILVAMGV | failed |
| MNENHLLDLEEQKTDLGRVEISPEVIEVIAGIAASEVEGVATMRGNFAAGVAEKLGYKNHGKGVKVDLNDEGIIVDVSVIILYGVSVPEVAKKIQQNIKQALQTMTAIELQSINVHIVGVHFEAVDGEEETKLEHHHHHH | failed |
| MNEQRLSMRLERVATHVPAGARLADIGSDHGYLPVALLNRGAVSAAVAGEVALTPFYAAERTVRENDLDQQISVRLADGLAAIEPTDRITAISLCGMGGETIRDILESGKARLSGQERLILQPNGGEQPLRVWLMEHNYRILDEEVLRENRFDYEIIVAERTGPMIYTAEQLYFGPIQMQTRSPAFLLKWQRLLGKKHKALSNFARARKAVPEEKMQDLAQQIRWITALLN | failed |
| MNFDRIFAWPLTSLEVFMNLALPSQYQFLPRFFRLATIAVLSNMMVPLAGLVDTAFLGHLEDIDYLAGVILGSILFDYLYRVLKFLRTSTTALTAQAVGEEDQAEVWVAGLRSALVALLLGLGILALQYPLQKFGFALLTGAPGVEQSGMDYFYGRIWGAPAVLLNFVILGWLLGQERNGLVLLISLVANFSNVGLDYLMINRWGWASAGAGWATASSQYLALALGLISIVVLAQGEKEKGEFKAAIAKLSDWGALRATIALKGNILIRFVILITTYSLFTNISSSFGTEVLAQNGLLLQIALLSQFTIQGVGMTSQTLTGNFKSKGEYQLLLPVLLTAIVTTLLMALGFAAVAIAFPETLFGLLTNHAEINDSVRQYTIWLIPLLESTALAFMLEAYFIGLKASQPLRNGVLFAFFGIYLPCLGLAIWQQSNNLLWFSLVSYMLGLVVYLGWQLLTRFSPQTLALESKQPS | failed |
| MNFIQSNLNNLLAIAWFALCWGGYTRYAIWKGRDTACLASVLHLYREDWMRRMLLRDNRIADASVIGNLERNASFFASSTLIILAGILTVLGASDRALSLLADLPLVQQTSQGMSEIKLLCLAMVFVYAFFTFSWCMRQYNFAAVLVGSAPMIGERLVNELERKAFASRAARVLSLAANQFNLGLRSYYFGMAMLSWFISPWLFMAMSVGVVLILYRREFHSDVLDVMVFTPTESVLSEPAKESSVVSN | failed |
| MNFISDQVKKLSSSTPEEPDHNKPVEGTETATRPATNAELMASAKVVAEAAQAAARNESDKLDKGKVAGASADILDAAEKYGKFDEKSSTGQYLDKAEKYLNDYESSHSTGAGGPPPPTSQAEPASQPEPAAKKDDEESGGGLGGYAKMAQGFLK | failed |
| MNFIVIGAGNIGSGIAQNLLEDGHEVEIADKSRESLNRIRGRNPKIRTREFDVMDRSAYRMLNDYDASVSALPGSIGMQFLKNVAKMGKIVVDVSYMEEDPYDLNGIAQSAGTIIVPDMGFAPGLTNAIVGYFSADLDQIRNVKIYVGGIPEKPVPPLDYTITWSVEG | failed |
| MNFLSIFVLIPLLMLAGLWAARGIKAIRGVMVTGASALLIASVVLTFMYLGERSAGNTAEMLFRADTLWYAPLHISYSVGVDGISVAMLLLSAVIVFTGTFASWRLQPLTKEYFLWFTLLSMGVFGFFISIDLFTMFMFYEIALIPMYLLIGVWGSGRKEYAAMKLTLMLMGGSAFLLIGILGIYFGSGATTMNLLEIAQLHNIPFAQQCIWFPLTFLGFGVLGALFPFHTWSPDGHASAPTAVSMLHAGVLMKLGGYGCFRIAMYLMPEAANELSWIFLILTGISVVYGAFSACVQTDLKYINAYSSVSHCGLVLFAILMLNQTAATGAILQMLSHGLMTALFFALIGMIYGRTHTRDVRELTGLMKVMPFLSVCYVIAGLANLGLPGLSGFIAEMTIFVGSFQNNDVFHRTLTIIACSSIVITAVYILRLVGKILYGTCTNKHHLALTDATWDERVAVICLIVCVAGLGMAPFWVSHMIGESVLPVVSQLIP | failed |
| MNFNQFENQNFFNGNPSDTFKDLGKQVFNYFSTPSFVTNIYETDELYYLEAELAGVNKEDISIDFNNNTLTIQATRSAKYKSEQLILDERNFESLMRQFDFEAVDKQHITASFENGLLTITLPKIKPSNETTSSTSIPIS | failed |
| MNFNYQTAWPSLSRSFEWSPAMTSSSVNPAEKFDRSRADEYARQSRIALAGYDACHDLAACMLAASLGEGRAAHILAVGAGGTAQEIIAMASLEPGWRFTAVDPSAPMLETARQQLQAQGLLERTEVRLATVDELAADEPFDGATLIGVLHHLPGDEAKRQLLRAIARRLKPGAPLIVAGNHYAYAGQPLLLAAWGQRWRQQGATADEVHAKLGKILQGADPPHSEAAVQRLLEEGGFSAGTRFFSSLFWGAWLSRKRC | failed |
| MNFSESFKLSGLLCRFSPDGKYLASCVQYRLVIRDVTTLQILQLYTCLDQIQHIEWSADSLFILCAMYRRGLVQVWSLEQPEWHCKIDEGSAGLVASCWSPDGRHILNTTEFHLRITVWSLCTKSVSYIKYPKACQQGLTFTRDGRYLALAERRDCRDYVSIFVCSDWQLLRHFDTDTQDLTGIEWAPNGCVLAAWDTCLEYKVLLYSLDGRLLSAYCAYEWSLGIKSVAWSPSSQFLAIGSYDGKVRLLNHVTWKMITEFGHPATINNPKTVVYKEAEKSPLLGLGHLSFPPPRAMAGALSTSESKYEIASGPVSLQTLKPVADRANPRMGVGMLAFSSDSYFLASRNDNVPNAVWIWDIQKLKLFVVLEHMSPVRSFQWDPQQPRLAICTGGSKVYLWSPAGCVSVQVPGEGDFPVLGLCWHLSGDSLALLSKDHFCLCFLETKERVGTAYEQRDGMPRT | failed |
| MNFVELAKKRYSCRNYQDRKVEKEKLEKVLDVARIAPTGGNRQPQRLIVIQEKEGINKLSKAANIYDAPLAILVCGDKDKVWTRPFDGKQLTDIDTSIVTDHMMLQATELGLASVWVCYFNPDIIREEFSLPDNLEPINILLMGYESKIPESPERHEKTRVPLSEIVSYETL | failed |
| MNFVLSDVADAEAEKAIRDPLVAYNLARFGESDKRDLNITIRNDDNSVTGGLVGHTARGWLYVQLLFVPEAMRGQGIAPKLLAMAEEEARKRGCMGAYIDTMNPDALRTYERYGFTKIGSLGPLSSGQSITWLEKRF | not failed |
| MNGKLNLPINTVIGVSLLVLLLVPALYFAKPVLLPMVISTFVALLFSPLINYFEDKGLPRTITVVVTLTLLVSVSILGLAAISEPAKQWWAELPSIVQNVSQEVNEVTKASSEHMNAPLELASDMNIDEMGNNTVFSLLKALATTTPTLLTQAMIVLFMVYFMLNHGRSLFRKSVSRLRGFSKQRQAVELVQALQKDLSRYIGTITLVNAGLGLCVGLVFFVLGLEDPFLWGAFAGVMNFAPYLGPVISMASFGFVAYLQLDSVSFMLTVVSIYLLLNLIESQFVTPTLLGRRFNLNPLVIFMWLVFWGWLWGGMGLLIGVPLLVCINILADRLALCGSTNI | failed |
| MNGMGGALRAASGKLNGLLNFARQLAFVKLFGVYLPRNNQFNNATACADLLCKAEVIPGSESHFRPRRQPDASGAASGIAGRQSAGASGARQQSSNEENHDARRHGRRGRVHRDRAFRNRMRGERSARRHRSGIGRLIRRALRSRAAHGIARRRVSRAIAGGVGRGRPGRGHDARGGDAGRRRRDGRAIRAAAGCGHARAGRARAGHAHVGRARVRRHDSRRFVAMGEYGGLAARLGCARRFQHRCAGDAARLVRGCAAGARREPRPHVRADPGDSLSRQSRVARCRARSGLMRVLFAISLLAVAWLAGCTGLRGGIERDARRESNESAALFKRASDGDNSVHALAPVVVDDGLWVSAGAVKLRSGEQLPPLFDEPASFDRAVSSLSEFAEQITRLTQVPTQVAASAQQAAARSQQGGGADGAARSAPVFLDAAGARSTPPLPPGMPGGASAGGGKAGGSGAGPDGGAGTSFAPVRIVYAGGTLRGLLDAACARFGVFWKYEQGTIRFFFTDTRTFQVNAIPGDSSLNASVVSGATSDGTSGGSQSGGSGGGINGASGGTTGLTANNTANTAVNSQLSVFNGLQSAIQSMLSRYGSSVSSPATGSISVTDTPDVLERVAAFMTQQNRSLSRQVLLNVTVLSVSLKAGDAYGIDWSLVYKTMSAGFNITNPFNPVSLTKPADLSATVLSPTSRFNGTKLLIRALSQQGTVRRKTSASVTTLNNQPVPVQVATQTGYLASVSTTNTANVGSSTALTPGVVTTGFNMTLLPHVLDDGTVMLQFSTNISSLLQLKEVSSSTGGRSAARIQTPDVDMRNFLQRVAMKSGETLVISGYEGANDSLDERGVGTPKMIALGGGYEAQRAREVIVILITPVTQRGGA | failed |
| MNGPAYEGGFKKFINGEFRMKAEKNLNKTRNISYAGLFFSLALTIFKLFAGLLGHSTALLADAVRSFSELINELVKLLDLSIAGKPEDWSHNYGHGKVATLVTGAGACVLLFAGIQSASLASGELLMFIQGKETEAPELFALSAAAFALVSKEIIPLFSRLAWKQTDKSLSETDIYTGNSRLKSLGLSCFVTLGIGCTFLPGKNWAVTDSLIAVLLSLYLLGSSGRLLYGTANELIEASLDEENNRKIREIINRTEGVLGSGELKTRRIGNGIAINACITVNSSLNIQEVAEIADLAEERLKKAYGEGIYTLIKAEPALERNCSFQKKPKISKEGGNKIIV | failed |
| MNGRMSLFLRNSIGVMAAMLAGVATPVANAMDNSLASGVVRFALDTGEASSVVGLAMKLEGESADYLQARLMLASGQHDEARAGFEGVFNGASHRGEAALALAEMAQEDGDLTGAENWYQQARRTGYGEVAQKALLGLAELVRIQGKTDAAGQYLARMEDGYWAAVGYMNLAADFARDDLDSSRALVSLRVAMAMAAKDTDTSRSRALLDQLNLRAGYLALGSDDYDKAIDFLEKVSLESYHTPQALYLHGLALSSKGNHRAAMQSWHRAKKFPLAFPGVSDAWIGMGRGYDLSGYPGQAGESWLAANAAYEGERVTLGKLSERITAEGAYKALVQDARSDDIQWFLADNRTLTQPRMAYLLRFMEEPGAQVAVRRVARLDEMVATLDASKYNLEVFIQALEVFMASAGSGGVAPQTAGLEQQQSDLESRLNGLVEQAATPAQVAELRQLKQSLAGAGRRMGALNQQVVQRPERLETVLDDAGALRDATKDLRYKTLSLREQAARELDALALAFVKKQTQRMTHALDKTEQQIAHLYEYLALENLGEGAQ | failed |
| MNGRRERAQGTEWAGDPAGCGTMERMPSALPDGEPVPADGALPASALAGAADRPLGFYLHVPYCATRCGYCDFNTYTATELRGTGGVLASRDNYADTLVDEVRLARKVLGDDPREVRTVFVGGGTPTLLAAGDLVRMLGAIRDEFGLAPDAEITTEANPESVDPAYLATLRAGGFNRISFGMQSAKQHVLKILDRTHTPGRPEACVAEARAAGFDHVNLDLIYGTPGESDDDWRASLDAALGAGPDHVSAYALIVEEGTQLARRIRRGEVPMTDDDVHADRYLIAEEALSAAGYDWYEVSNWATSDAGRCLHNELYWRGADWWGAGPGAHSHVGGVRWWNVKHPGAYAGALAAGKSPGAGREILTDEDRRVERILLELRLREGVPLSLLREAGLAASRRALSEGLLQEGPYEAGSAVLTLRGRLLADAVVRDLVD | failed |
